These results are taken from PMC8113471, “Tanc2-mediated mTOR inhibition balances mTORC1/2 signaling in the developing mouse brain and human neurons” (Nature Communications, 2021).

This test concerns the target mTOR recombinant protein (Origene #TP320457) (UniProt P42345 1-2549). The experiment in a line: pull-down; GST-Tanc2 proteins (full-length, N, C) immobilised on glutathione agarose beads, incubated with mTOR recombinant protein (0.5 µg) or Deptor protein in RIPA buffer for 2 h at 4 °C; washed three times; Coomassie staining or immunoblot. Conditions: both partners purified.

B1: GST-Tanc2-N (aa 1-1358) (domain or fragment)
chain: not shown
notes: Tanc2, human, aa 1-1358, in pGEX-6P-1; also called N-terminal region of purified Tanc2; pGST-Tanc2-N; source: E. coli BL-21 (DE3), purified on glutathione sepharose 4B beads
In the case of B1, the binding result is on record as “binds”.

B2: GST-Tanc2-C (aa 1359-1990) (domain or fragment)
chain: REIQRLLLRVEEECRQMQQPQQPPPPPQPQQQLPEEAEPEPQHEDIYSVQDIFEEEYLEQDVENVSIGLQTEARPSQGLPVIQSPPSSPPHRDSAYISSSPLGSHQVFDFRSSSSVGSPTRQTYQSTSPALSPTHQNSHYRPSPPHTSPAHQGGSYRFSPPPVGGQGKEYPSPPPSPLRRGPQYRASPPAESMSVYRSQSGSPVRYQQETSVSQLPGRPKSPLSKMAQRPYQMPQLPVAVPQQGLRLQPAKAQIVRSNQPSPAVHSSTVIPTGAYGQVAHSMASKYQSSQGDIGVSQSRLVYQGSIGGIVGDGRPVQHVQASLSAGAICQHGGLTKEDLPQRPSSAYRGGVRYSQTPQIGRSQSASYYPVCHSKLDLERSSSQLGSPDVSHLIRRPISVNPNEIKPHPPTPRPLLHSQSVGLRFSPSSNSISSTSNLTPTFRPSSSIQQMEIPLKPAYERSCDELSPVSPTQGGYPSEPTRSRTTPFMGIIDKTARTQQYPHLHQQNRTWAVSSVDTVLSPTSPGNLPQPESFSPPSSISNIAFYNKTNNAQNGHLLEDDYYSPHGMLANGSRGDLLERVSQASSYPDVKVARTLPVAQAYQDNLYRQLSRDSRQGQTSPIKPKRPFVESNV
notes: Tanc2, human, aa 1359-1990, in pGEX-6P-1; also called C-terminal region of purified Tanc2; pGST-Tanc2-C; source: E. coli BL-21 (DE3), purified on glutathione sepharose 4B beads
B2: the binding result is “binds”.

B3: GST-Tanc2 (full-length) (natural protein)
chain: not shown
notes: Tanc2, human, aa 1-1990, subcloned from p3XFlag-Tanc2 (aa 1-1990) into pGEX-6P-1; Kept on the glutathione beads as bait; also called purified Tanc2 protein; pGST-Tanc2 (aa 1-1990); source: E. coli BL-21 (DE3), purified on glutathione sepharose 4B beads
As to B3, the binding result is listed as “binds”.
